Measurements from paper PMC8745191.
Positions count from the first letter of the chain named.

Key:
Settings in all cases: LightShift Chemiluminescent EMSA kit, manufacturer's protocol; binding buffer, pH and temperature not stated; protein eluted in 20 mM Tris-HCl pH 8.0, 500 mM …
[1] = molecular target: T1, His-STOP1 H266Y H266Y (Arabidopsis thaliana (stop1-1 allele)) (UniProt Q9C8N5); experiment: EMSA
T1 sequence: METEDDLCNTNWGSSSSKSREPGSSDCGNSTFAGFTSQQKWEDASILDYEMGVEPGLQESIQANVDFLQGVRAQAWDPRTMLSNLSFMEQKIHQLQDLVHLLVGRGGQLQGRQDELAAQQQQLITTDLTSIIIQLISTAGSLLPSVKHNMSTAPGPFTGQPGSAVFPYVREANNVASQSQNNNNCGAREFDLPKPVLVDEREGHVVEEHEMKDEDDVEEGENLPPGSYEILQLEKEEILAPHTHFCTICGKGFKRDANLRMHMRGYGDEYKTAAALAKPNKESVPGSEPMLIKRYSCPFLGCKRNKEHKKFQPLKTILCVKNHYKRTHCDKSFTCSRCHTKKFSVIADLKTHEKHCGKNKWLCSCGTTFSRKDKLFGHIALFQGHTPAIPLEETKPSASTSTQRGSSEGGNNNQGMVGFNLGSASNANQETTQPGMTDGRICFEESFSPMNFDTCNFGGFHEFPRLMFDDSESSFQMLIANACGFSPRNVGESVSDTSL

[2] = molecular target: T2, His-STOP1 (Arabidopsis thaliana) (UniProt Q9C8N5); experiment: EMSA
T2 sequence: T1 sequence with Y266H

[3] = molecular target: T2, His-STOP1 (Arabidopsis thaliana); experiment: competition

Row | Sequence | binding [1] | binding [2] | binding [3]
1 | TTGCATTTAAATTATCAAAGACTAAGATAAGCCTAGAATAATTTAAAATGTAAACTATAGTATACGTCAGAACCTACAGATACAACCTTCCTCGTATAATCCCTAAACAGAATTTTAATT (double strand) [P3 (F2-2) LKS1 promoter probe] | no binding | binds | –
2 | TTGCATTTAAATTATCAAAGACTAAGATAAGCCTAGAATAATTTAAAATGTAAACTATAGTATACGTCAGAACCTACAGATACAACCTTCCTCGTATAATCCCTAAACAGAATTTTAATT (double strand) [P3 unlabeled competitor (cold probe)] | – | – | binds
